Assay results as given in PMC11764028 (Bioactive Materials, 2025).

Target: the molecule itself
Assay: SEC + native gel or EMSA

B1: dual-functional fusion protein KFS (KALA peptide - human ferritin light chain - SIINFEKL) (other)
chain: WEAKLAKALAKALAKHLAKALAKALKAIRQNYSTDVEAAVNSLVNLYLQASYTYLSLGFYFDRDDVALEGVSHFFRELAEEKREGYERLLKMQNQRGGRALFQDIKKPAEDEWGKTPDAMKAAMALEKKLNQALLDLHALGSARTDPHLCDFLETHFLDEEVKLIKKMGDHLTNLHRGGGGSGGGGSGGGGSSIINFEKL
stoichiometry N: 40
